Measurements as given in article PMC5469797, “Discovery of a novel conformational equilibrium in urokinase-type plasminogen activator” (Scientific Reports, 2017).

Target: T1, full-length muPA inhibited at the active site with Glu-Gly-Arg-chloromethylketone (Mus musculus, UniProt P06869, irreversible active site binding ligand Glu-Gly-Arg-chloromethylketone (EGR-cmk) in the active site)
T1 construct: as m2; source: HEK293 6E suspension cells, purified by nickel-Sepharose chromatography; reacted with EGR-cmk
Assay: SPR; BiaCore T100, 22 °C, curves fitted to a 1:1 binding model; who was immobilised is not told (SI Methods)
Conditions: both partners purified

T1 sequence (P06869 21-433): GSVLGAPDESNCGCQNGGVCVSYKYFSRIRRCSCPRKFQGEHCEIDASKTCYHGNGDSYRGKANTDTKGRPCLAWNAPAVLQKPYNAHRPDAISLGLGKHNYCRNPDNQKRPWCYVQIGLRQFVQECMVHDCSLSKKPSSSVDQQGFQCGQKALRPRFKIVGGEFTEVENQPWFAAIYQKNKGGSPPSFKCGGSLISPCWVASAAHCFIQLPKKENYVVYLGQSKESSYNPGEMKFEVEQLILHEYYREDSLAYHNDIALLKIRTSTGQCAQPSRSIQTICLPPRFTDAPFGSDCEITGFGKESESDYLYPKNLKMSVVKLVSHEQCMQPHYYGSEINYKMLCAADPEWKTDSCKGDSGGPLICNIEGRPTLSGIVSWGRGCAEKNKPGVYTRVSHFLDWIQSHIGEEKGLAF

B1: anti-muPA allosteric nanobody Nb7 (VHH)
VHH: QVQLQESGGGLVQPGGSLRLSCAASGFTLGYYAIGWFRRAPGKEREGVSCISSSGGSTNYADSVKGRFTISRDNAKNTVDLQMNSLKPEDTAIYYCAAEWVPPGYGATVQALCNNAGYGMEYWGKGTQVTVSS
notes: from an immunised alpaca phage library; All residues of Nb7 were visible in the electron density of 5LHN; source: E. coli WK6 (su-), produced as described previously
  fold change of KD against muPA without EGR-cmk: 1.5 fold
